Drawing on PMC4113996, “Prediction and characterization of enzymatic activities guided by sequence similarity and genome neighborhood networks” (eLife, 2014), this text covers Km and kcat for 13 proteins.

Broadly, the Km is the concentration of substrate that gives half-maximal velocity. Broadly, the kcat is the maximal rate divided by the concentration of active sites.

Holding throughout (test): purified protein
Substrate in data set [1]: O=C(O)C1=NCCC1
Conditions: 0.16 mM NADPH, 50 mM Tris-HCl pH 7.6, 25°C.

Substrate in data set [2]: O=C(O)[C@H]1NCC[C@@H]1O
In kind it is biochemical, Gillisella ampelina. Conditions: t3HypD (dehydration) reaction, 50 mM Na-phosphate pH 8.0, 1 mM DTT, 25°C.

Substrate in data set [3]: O=C(O)[C@@H]1C[C@@H](O)CN1
In kind it is biochemical, Roseibium aggregatum. Conditions: 4HypE reaction (start from t4Hyp as in Figure 1), 50 mM Na-phosphate pH 8.0, 1 mM DTT, 25°C.

Substrate in data set [4]: O=C(O)[C@H]1NCC[C@@H]1O
The class given is biochemical, Burkholderia ambifaria. Conditions: t3HypD (dehydration) reaction, 50 mM Na-phosphate pH 8.0, 1 mM DTT, 25°C.

Substrate in data set [5]: O=C(O)[C@H]1NCC[C@@H]1O
Conditions: t3HypD (dehydration) reaction, 50 mM Na-phosphate pH 8.0, 1 mM DTT, 25°C.

Substrate in data set [6]: O=C(O)[C@@H]1C[C@@H](O)CN1
The class given is biochemical, Paracoccus denitrificans. The conditions noted are these: 4HypE reaction (start from t4Hyp as in Figure 1), 50 mM Na-phosphate pH 8.0, 1 mM DTT, 25°C.

Substrate in data set [7]: O=C(O)[C@H]1NCC[C@@H]1O
The class given is biochemical, Agrobacterium fabrum. The conditions noted are these: t3HypD (dehydration) reaction, 50 mM Na-phosphate pH 8.0, 1 mM DTT, 25°C.

Substrate in data set [8]: O=C(O)[C@@H]1C[C@@H](O)CN1
The class given is biochemical, Streptosporangium roseum. Conditions: 4HypE reaction (start from t4Hyp as in Figure 1), 50 mM Na-phosphate pH 8.0, 1 mM DTT, 25°C.

Substrate in data set [9]: O=C(O)[C@@H]1C[C@@H](O)CN1
The class given is biochemical, Shewanella loihica. The conditions noted are these: 4HypE reaction (start from t4Hyp as in Figure 1), 50 mM Na-phosphate pH 8.0, 1 mM DTT, 25°C.

Substrate in data set [10]: O=C(O)[C@@H]1C[C@@H](O)CN1
In kind it is biochemical, Agrobacterium fabrum. The conditions noted are these: 4HypE reaction (start from t4Hyp as in Figure 1), 50 mM Na-phosphate pH 8.0, 1 mM DTT, 25°C.

B1: Pden_1185 (A1B196) (Paracoccus denitrificans PD1222) (protein)
chain: MARKSSAPQFLSYGDATGRLSWRDAVEALRQGHTLPQAQIRDVFLGPPTGTMMSRSAWIEGLGYGAKTFTVFDGNAARGLPTVQGAMLVFDKDDGRLQAIVDSPLVTEFKTAADSVLGASLLARPDSRHLLIVGAGTVAASLVRAYTAVLPGIERVSVWARRPQQAQDLIEGLDGIEADLAAVSDLPAAVGQADIVSSATMARQPVILGAWVRPGTHVDLIGAFKADMREADDALMARAALFVDSRETTLGHIGELMLPIASGAITAESVLGDLYDLVRPGARRRQSEDEITVFKNGGGAHLDLMIASYIARVMAG
On to B1, for which, in the data set “purified protein [1]”, the Km worked out at 3.1 ± 0.7 mM and the catalytic constant (kcat) stood at 260 ± 20 s⁻¹.

B2: Avi_7022 (B9K4G4) (Allorhizobium ampelinum S4) (protein)
chain: MRTNKVIHVIGVHAEGEVGDVIVGGVSPPPGDTLWEQSRFIASDETLRNFVLNEPRGGVFRHVNLLVPPKDPRAQMGFIIMEPADTPPMSGSNSICVSTAILDSGIISMQEPLTHMVLEAPGGVIEVTAECANGKAERINVLNVASFVTRLAAALEVEGLGTLTVDTAYGGDSFVIVDAIGLGFSLKPDEARELAELGMKITAAANEQLGFVHPCNADWNHISFCQMTTPITRENGILTGKSAVAIRPGKIDRSPTGTGCSARLAVMHARGEIGIGETYIGRSIIDSEFKCHIDSLTEIGGLSAIRPVISGRAWITGVSQLMLDPTDPWPSGYQLSDTWPAI
Turning to B2, in the data set “purified protein [2]”, the Km is recorded as 15 ± 3 mM and the kcat turned out to be 4.3 ± 0.4 s⁻¹.

B3: SIAM614_28492 (A0NXQ7) (Roseibium aggregatum IAM 12614) (protein)
chain: MRVIDSHTAGEPTRVVLDGGPDLGSGTLAERAARLEAEHLDFCASVVLEPRGHDAIIGALLVPPSDPACAAGVIYFNNLQNLGMCGHATIGLGVTLAHLGRIRPGRHRFETPVGVVEIDLIDANTVSVVNIESYRLAKDVTVEVEGVGPVTGDVAWGGNWFFLVKNSPIALTGANIRPLTDLTLKIRTALEKAGVTGKDGAWIDHIELFGPAEDPAAQSRNFVLCPGGAYDRSPCGTGCSAKLACLAADGALAPGQDYLQESVIGSTYKISYQPGPGGGVIPTITGQAFVTSDATLIFNPADPYRSGIRL
As for B3, in “purified protein [3]”, the Km was 3.2 ± 0.5 mM and the kcat came to 55 ± 3 s⁻¹.

B4: Bamb_3769 (Q0B950) (Burkholderia ambifaria AMMD) (protein)
chain: MKISRSLSTVEVHTGGEAFRIVTSGLPRLPGDTIVQRRAWLKENADEIRRALMFEPRGHADMYGGYLTEPVSPTADFGVIFLHNEGYSDHCGHGVIALSTAAVELGWVQRTVPETRVGIDAPCGFIEAFVQWDGEHAGPVRFVNVPSFIWRRDVSVDTPSFGTVTGDIAYGGAFYFYVDGAPFDLPVREAAVEKLIRFGAEVKAAANAKYPVVHPEIPEINHIYGTIIANAPRHPGSTQANCCVFADREVDRSPTGSGTGGRVAQLYQRGVLAAGDTLVNESIVGTVFKGRVLRETMVGDIPAVIPEVEGSAHICGFANWIVDERDPLTYGFLVR
For B4, in the data set “purified protein [4]”, the Km was determined as 13 ± 3 mM and the turnover number (kcat) was 43 ± 4 s⁻¹.

B5: SM_b20270 (Q92WR9) (Sinorhizobium meliloti 1021) (protein)
chain: MRSTKTIHVISAHAEGEVGDVIVGGVAPPPGDTIWEQSRWIAREQTLRNFVLNEPRGGVFRHVNLLVPPKHPDADAAFIIMEPEDTPPMSGSNSICVSTVLLDSGILPMKEPVTEITLEAPGGLVRVRAECRDGKAERIFVENLPSFAERLDAKLEVEGLGTLTVDTAYGGDSFVIVDAAAMGFALKPDEAHDIARLGVRITNAANAKLGFHHPENPDWRHFSFCLFAGPVERTAEGLRAGAAVAIQPGKVDRSPTGTALSARMAVLHARGQMGLSDRLTAVSLIGSTFSGRILGTTEVGGRPAVLPEISGRAWITGTHQHMLDPSDPWPEGYRLTDTWGAR
B5: in the data set “purified protein [5]”, the Km was 3.8 ± 0.4 mM and the turnover number (kcat) amounted to 7.9 ± 0.2 s⁻¹.

B6: RSP_0854 (Q3IZJ8) (Cereibacter sphaeroides 2.4.1) (protein)
chain: MSIEIIGPEAEAHLSWDGLTTALTQGHKLPRAEVADIFLYRGKDTVLSRAAWIDGLGQLVKTATIFPGNGAAGKPTVNGAVTLYSDRDGTLEALVDFHLVTKWKTAGDSLLAAKRLARRDSREILLVGAGNVARSMIEAYGSHFPDARFTVWNRSADKARAMEGPQVRATEDLEAAVRAADIICTATMSQEPVVKGEWLKPGTHLDLIGAYRPDMREVDDEALRRATVFVDSRKTTIGHIGEIQDPLDRGILTEADIRADYYDLASGLYARRSDEEITLAKNGGGAHLDLMTASYIAAMWRQR
Turning to B6, in “purified protein [1]”, the Km is recorded as 0.43 ± 0.09 mM and the kcat amounted to 66 ± 4 s⁻¹.

B7: SIAM614_28502 (A0NXQ9) (Roseibium aggregatum IAM 12614) (protein)
chain: MRSTKTIHVISCHAEGEVGDVIVGGVAPPPGETLWEQRSFIARDQTLRNFVLNEPRGGVFRHVNLLVPPRHPEADAAFIIMEPEDTPPMSGSNSICVSTVLLDGGIVPMIEPITEMVLEAPGGLVRVKAECRNGKAERIFVQNVTSFADKLSVPLDVEGIGTLTVDTAYGGDSFVVVDAEALGFAIVEDEAKDIARLGVRITNAANEQLGFSHPENPDWNHISFCAFCGPLSQTPTGLTGRSAVAIQPGKVDRSPTGTAVSARMALMAARGQMTIGDTFEAVSIIGSSFTGRIVSQQMAGDRPGIVPEISGRGWITGIHQHMLDPSDPWPGGYKLSDTWGA
Turning to B7, in the data set “purified protein [5]”, the Km is recorded as 7.8 ± 1 mM and the kcat amounted to 15 ± 0.9 s⁻¹.

B8: Pden_4859 (A1BBM5) (Paracoccus denitrificans PD1222) (protein)
chain: MTQYIFPCIDGHTCGNPVRLVAGGAPRLEGATMLEKRAHFLREFDWIRTGLMFEPRGHDMMSGAILYPPTRGDCDVAVLYIETSGCLPMCGHGTIGTITMGIENGLIVPRTPGRLSIETPAGKVDIEYRQEGRHVEEVRLTNVPGFLYAEGLTAEVEGLGEIVVDVAYGGNFYAIVEPQKNFRDMADHTAGELIGWSLTLRAALNQKYEFTHPEHPQINGLSHIQWTGAPTVPGAHARNAVFYGDKAIDRSPCGTGTSARMAQLAARGRLGVGDEFWHESIIGSIFKGRIEAAATVAGRDAIIPSIAGWARQTGLNTIFIDAERDPFAHGFVVK
B8: in “purified protein [6]”, the Km worked out at 25 ± 5 mM and the kcat is 16 ± 2 s⁻¹.

B9: Atu4684 (A9CH01) (Agrobacterium fabrum str. C58) (protein)
chain: MRSIKTVHVISAHAEGEVGDVIVGGVKPPPGETIWEQSRFIARDETLRNFVLNEPRGGVFRHVNLLVPPKHPDADAAFIIMEPEDTPPMSGSNSICVSTVLLDGGIVPMQEPETHMLLEAPGGLVKVRAECRNGKAERIFVQNLPSFAAKLDAELEVEGLGKLKVDTAYGGDSFVIVDAEAMGFSLKPEEAHEIARLGVRITNAANKALGFDHPENPDWRHFSFCLFAGKVERTAEGLRAGAAVAIQPGKVDRSPTGTALSARMAVLHARGEMKEGETLTAVSLIGSTFTGRILGTTTVGDRPAILPEISGRGWITGIHQHMLDPSDPWPEGYRLTDTWGAR
As to B9, in “purified protein [7]”, the Km was found to be 4.2 ± 0.8 mM and the turnover number (kcat) came to 27 ± 1 s⁻¹.

B10: PFL_1416 (Q4KGT8) (Pseudomonas protegens Pf-5) (protein)
chain: MSEYITLSLDEVCALSYQVLTRHGLSDAHARAIAEVITQGQRDECHSHGVYRLLGCVRSVREGRIDPRAEPSLRHVSPGVLEVDAHYGYSLLGFHTGLPILAEKARSQGIAAMVIKRCFHFSALWPEVEAIADYGLVGMAMNPSHSWVAPAGGRQPVFGTNPLAFAWPRPGGQPFVFDFATSAIARGDIELHARQGKPIPEHWAIDADGQPTTDAKAALQGAMQTFGGHKGSALAAMIELLAGALIGDLTSAESMAFDGGVGATPCHGELVLAFDPRVFLGEGYEQGLERAEGLFAAIARQGARLPSQRRFAARARSLEHGVQIPRGLLEDIRGLL
As for B10, in the data set “purified protein [1]”, the Km stood at 1.1 ± 0.2 mM and the turnover number (kcat) is 20 ± 0.8 s⁻¹.

B11: Sros_6004 (D2AV87) (Streptosporangium roseum DSM 43021) (protein)
chain: MRTKRVFHAVDSHTEGMPTRVITGGVGVIPGSTMAERREHFLAEMDHVRTLLMYEPRGHSAMSGAILQPPTRPDADYGVLYIEVSGCLPMCGHGTIGVATVLVETGMVEVVEPVTTIRLDTPAGLVVAEVRVEDGAATAVTITNVPSFSAGLDRTVKVPGIGEVTYDLAYGGNFYAILPIESVGLPFDRAHKQQILDAGLAIMDAINEQDEPVHPLDAGIRGCHHVQFTAPGSDARHSRHAMAIHPGWFDRSPCGTGTSARMAQLHARGELPLDTDFVNESFIGTRFVGRLVEETEVTDLPAVVPTITGRAWVTGTAQYFLDPRDPFPEGFLL
In the case of B11, in the data set “purified protein [8]”, the Km amounted to 7.8 ± 1 mM and the kcat stood at 14 ± 0.8 s⁻¹.

B12: Shew_2363 (A3QFI1) (Shewanella loihica PV-4) (protein)
chain: MLKGTFFCVDAHTCGNPVRLVTSGHPDLKGRTMSEKRQDFLAQYDWIRKALMFEPRGHDMMSGAFLYPPCSDNADAAILFIETSGCLPMCGHGTIGTITAALESGLLTPKMPGQLTIDVPAGQIKVQYQQTGAKVDWVKIFNVPAYLAHKDVVLDIPGLGPLKIDVSYGGNYYAIVDPQANFPGLRHWSAGDILRWSPIVREVAHRELNCVHPDDPTVNGVSHVLWTGDTISEGSNGANAVFYGDKAIDRSPCGTGTSARLAQLYSRGELKVGDEYTHESIIGSQFVGRIEAATKVGAFDAIMPSIKGWARITGHNAITVDDNDPYAFGFQVV
Turning to B12, in the data set “purified protein [9]”, the Km is reported as 12 ± 3 mM and the kcat worked out at 50 ± 6 s⁻¹.

B13: Atu0398 (A9CKB4) (Agrobacterium fabrum str. C58) (protein)
chain: MRWKRTLQLLDVHCEGEIGRVVTGGAPKIPGNTVAEQLHWMNTDPQGEALRRFLTLEPRGTPMGSVDLLLPPKHPDAHAAFVILQPDQAHASSGSNSICATTALLESGMVEMQEPETVIILETAAGLVKATATCRDGRCEKVKLTMVPSFVHELDVSIDTPEWGRVTMDISYGGIFYALVDVRQIGLTIEKANAAKLVAAGMTLKDLVNREMTVVHPEIPAISGVAYVMFRDVDADGSIRTCTTMWPGRADRSPCGTGNSANLATLYARGKVKVGDEYKSRSIIGSEFDVGLSAVTEVAGRPAVIPTIAGRGFTFGLHQVGLDPFDPLGDGFAMTDVWGPEAGNI
For the protein B13, in “purified protein [10]”, the Km is reported as 4.6 ± 2 mM and the kcat was found to be 0.86 ± 0.1 s⁻¹.
